Source: PMC8783683, “Plasma cell dependence on histone/protein deacetylase 11 reveals a therapeutic target in multiple myeloma” (JCI Insight, 2021)

Legend:
[1] = biological target: T1, IFN response factor 4 (IRF4), endogenous (human (endogenous in MM1.S and primary …, UniProt Q15306 1-451)); assay: proximity ligation assay (PLA); settings: MM1.S cells transfected with OE.HDAC11mut, read off a plot
T1 construct: IRF4, endogenous in human multiple myeloma cells (MM1.S line and primary patient MM cells), detected or precipitated by anti-IRF4; source: endogenous, MM1.S cells (fixed cells and lysate); endogenous, patient-derived primary MM cells
T1 sequence (looked up): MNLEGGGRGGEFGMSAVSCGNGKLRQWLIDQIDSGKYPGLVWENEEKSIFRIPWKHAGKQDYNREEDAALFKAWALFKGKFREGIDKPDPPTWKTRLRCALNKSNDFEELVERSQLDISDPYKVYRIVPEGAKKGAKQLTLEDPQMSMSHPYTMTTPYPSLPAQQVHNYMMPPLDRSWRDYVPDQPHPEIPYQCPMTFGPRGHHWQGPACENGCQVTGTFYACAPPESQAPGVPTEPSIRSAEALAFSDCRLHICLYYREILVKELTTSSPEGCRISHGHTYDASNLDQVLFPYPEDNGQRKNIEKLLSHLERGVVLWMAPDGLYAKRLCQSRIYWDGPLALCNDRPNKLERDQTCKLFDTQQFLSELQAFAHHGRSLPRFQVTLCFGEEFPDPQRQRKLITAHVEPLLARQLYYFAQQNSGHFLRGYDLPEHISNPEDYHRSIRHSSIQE

[2] = biological target: T1, IFN response factor 4 (IRF4), endogenous; assay: proximity ligation; primary MM cells from patient samples, cultured with the patient's serum, untreated or with LPS (5 μg/mL, 24 hours); settings: partners not purified

In the case of “HA-tagged WT HDAC11 (HDAC11^wt.HA) (from UniProt Q96DB2) HDAC11mut”, the response (# Foci Per Cell) ([1]; cytoplasmic foci, parent: est. 17) is reported as 18 and the response (# Foci Per Cell) ([1]; nuclear foci, parent: est. 105) is reported as 13.

B1: histone/protein deacetylase 11 (HDAC11), endogenous (enzyme, UniProt Q96DB2 1-347, looked up)
chain: MLHTTQLYQHVPETRWPIVYSPRYNITFMGLEKLHPFDAGKWGKVINFLKEEKLLSDSMLVEAREASEEDLLVVHTRRYLNELKWSFAVATITEIPPVIFLPNFLVQRKVLRPLRTQTGGTIMAGKLAVERGWAINVGGGFHHCSSDRGGGFCAYADITLAIKFLFERVEGISRATIIDLDAHQGNGHERDFMDDKRVYIMDVYNRHIYPGDRFAKQAIRRKVELEWGTEDDEYLDKVERNIKKSLQEHLPDVVVYNAGTDILEGDRLGGLSISPAGIVKRDELVFRMVRGRRVPILMVTSGGYQKRTARIIADSILNLFGLGLIGPESPSVSAQNSDTPLLPPAVP
notes: HDAC11, endogenous in human multiple myeloma cells (MM1.S line and primary patient MM cells), detected by mouse anti-HDAC11 in PLA; source: endogenous, MM1.S cells; endogenous, patient-derived primary MM cells
B1 was tested, and the “fold increase of nuclear PLA complexes with LPS against untreated cells” value [2] was 4.5 fold.
